From patent publication US6380373B1, “Steroid receptor coactivator compositions and methods of use” (Baylor College of Medicine, priority 1995, dated 2002)

T1: hPR (Homo sapiens, UniProt P06401)
T1 construct: expressed in transfected cells; host or cells: HeLa
T1 sequence (P06401 1-933): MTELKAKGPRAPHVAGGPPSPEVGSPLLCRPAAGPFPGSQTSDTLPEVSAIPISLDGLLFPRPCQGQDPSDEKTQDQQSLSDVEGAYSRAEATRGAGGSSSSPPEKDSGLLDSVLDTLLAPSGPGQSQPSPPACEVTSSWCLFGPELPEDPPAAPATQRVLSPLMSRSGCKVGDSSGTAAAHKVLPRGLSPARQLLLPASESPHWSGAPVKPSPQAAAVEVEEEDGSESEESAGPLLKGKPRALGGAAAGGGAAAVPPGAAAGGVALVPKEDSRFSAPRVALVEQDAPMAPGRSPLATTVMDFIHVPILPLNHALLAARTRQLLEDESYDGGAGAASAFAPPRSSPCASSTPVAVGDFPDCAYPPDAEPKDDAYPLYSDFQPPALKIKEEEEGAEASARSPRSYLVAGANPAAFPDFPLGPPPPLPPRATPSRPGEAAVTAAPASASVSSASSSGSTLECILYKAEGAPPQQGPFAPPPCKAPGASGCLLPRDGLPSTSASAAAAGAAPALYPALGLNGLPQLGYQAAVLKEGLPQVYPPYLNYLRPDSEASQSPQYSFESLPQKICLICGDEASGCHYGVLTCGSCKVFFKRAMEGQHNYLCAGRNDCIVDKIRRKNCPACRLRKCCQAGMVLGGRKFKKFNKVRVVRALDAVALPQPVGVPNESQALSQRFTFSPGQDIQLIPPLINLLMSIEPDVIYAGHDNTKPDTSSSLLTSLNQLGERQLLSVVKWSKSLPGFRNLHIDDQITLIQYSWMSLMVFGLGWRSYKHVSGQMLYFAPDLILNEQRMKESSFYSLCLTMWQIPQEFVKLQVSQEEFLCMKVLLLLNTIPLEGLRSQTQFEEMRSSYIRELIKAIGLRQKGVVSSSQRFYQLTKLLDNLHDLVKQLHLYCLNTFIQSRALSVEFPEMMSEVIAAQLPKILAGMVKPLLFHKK

T2: GST-TR (Homo sapiens, UniProt P10828)
T2 construct: GST; made in house
T2 sequence (P10828 1-461): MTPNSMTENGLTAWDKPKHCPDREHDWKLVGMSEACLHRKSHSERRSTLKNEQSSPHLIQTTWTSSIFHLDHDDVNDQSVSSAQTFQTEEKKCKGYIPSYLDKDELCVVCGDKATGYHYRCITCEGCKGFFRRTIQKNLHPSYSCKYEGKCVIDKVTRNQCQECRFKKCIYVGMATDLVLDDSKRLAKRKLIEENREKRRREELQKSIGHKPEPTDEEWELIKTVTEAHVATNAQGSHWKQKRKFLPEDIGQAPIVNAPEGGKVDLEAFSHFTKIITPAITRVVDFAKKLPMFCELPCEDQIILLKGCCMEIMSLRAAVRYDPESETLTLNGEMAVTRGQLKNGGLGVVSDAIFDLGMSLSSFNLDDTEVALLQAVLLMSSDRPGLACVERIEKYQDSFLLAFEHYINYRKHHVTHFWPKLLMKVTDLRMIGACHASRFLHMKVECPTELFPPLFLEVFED

T3: TR (Homo sapiens, UniProt P10828)
T3 sequence (P10828 1-461): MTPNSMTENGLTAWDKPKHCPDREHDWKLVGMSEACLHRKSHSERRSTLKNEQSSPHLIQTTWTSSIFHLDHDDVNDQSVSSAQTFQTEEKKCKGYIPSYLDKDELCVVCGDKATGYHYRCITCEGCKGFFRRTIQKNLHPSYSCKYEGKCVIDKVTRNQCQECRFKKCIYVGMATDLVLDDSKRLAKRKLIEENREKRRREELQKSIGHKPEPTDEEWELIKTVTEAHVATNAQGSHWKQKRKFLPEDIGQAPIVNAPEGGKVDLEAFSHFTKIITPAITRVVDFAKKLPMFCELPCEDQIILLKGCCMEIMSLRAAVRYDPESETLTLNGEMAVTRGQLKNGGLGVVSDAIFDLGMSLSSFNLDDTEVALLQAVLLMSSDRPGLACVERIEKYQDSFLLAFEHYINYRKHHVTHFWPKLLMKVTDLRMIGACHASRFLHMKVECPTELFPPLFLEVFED

T4: GST-ER (Homo sapiens, UniProt P03372)
T4 construct: GST; made in house
T4 sequence (P03372 1-595): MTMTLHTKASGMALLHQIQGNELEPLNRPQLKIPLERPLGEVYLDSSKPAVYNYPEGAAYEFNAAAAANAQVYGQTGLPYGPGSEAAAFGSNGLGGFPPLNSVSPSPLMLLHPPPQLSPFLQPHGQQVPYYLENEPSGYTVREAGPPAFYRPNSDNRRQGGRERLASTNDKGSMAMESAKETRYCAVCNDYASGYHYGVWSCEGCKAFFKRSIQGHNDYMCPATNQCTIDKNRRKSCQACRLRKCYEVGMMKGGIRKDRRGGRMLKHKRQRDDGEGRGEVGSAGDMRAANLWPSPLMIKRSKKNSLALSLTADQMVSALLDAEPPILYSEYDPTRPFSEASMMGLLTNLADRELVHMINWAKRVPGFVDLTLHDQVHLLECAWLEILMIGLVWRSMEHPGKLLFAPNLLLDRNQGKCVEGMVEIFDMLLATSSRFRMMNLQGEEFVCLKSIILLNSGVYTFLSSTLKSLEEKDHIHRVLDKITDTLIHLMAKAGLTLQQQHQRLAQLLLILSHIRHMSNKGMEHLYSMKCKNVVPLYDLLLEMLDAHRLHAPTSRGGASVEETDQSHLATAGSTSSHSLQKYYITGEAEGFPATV


Key:
hPR [1] = molecular target: T1, hPR; test: Transient transfection CAT reporter assay, hPRB with PRE2-TATA-CAT in HeLa cells; type: cell-based; conditions: HeLa cells, PRE2-TATA-CAT, 2×10^−8 M R5020, without SRC-1
Procedure: (§1) Lipofectin (GibcoBRL) was selected for transfection of Hela cells.
To further investigate the role of SRC-1 in receptor transactivation of target gene expression, transient transfection assays were carried out in mammalian cell lines. HeLa cells were cotransfected with mammalian expression vectors for full-length SRC-1 and hPRB together with a plasmid containing two copies of the progesterone-responsive DNA element (PRE) inserted in front of the TATA box of the E1b adenovirus, linked to the chloramphenicol acetyl transferase (CAT) reporter gene, PRE2-TATA-CAT.
Cells were harvested 42 h after transfection and the chloramphenicol acetyl transferase (CAT) activity determined using 8 μg of protein extract.

hPR [2] = molecular target: T1, hPR; test: Dominant-negative CAT assay PR/PRE2-tk-CAT with SRC-1(0.8); type: cell-based; conditions: Lmtk- cells
Procedure: as §1
(§2) To further elucidate the mechanism of SRC-1 action, the effect of the N-terminal deletion mutant of SRC-1, SRC-1(0.8), on receptor transactivation was examined. The amino acid sequence from 865-1061, which contains the region that binds to the receptor, was cloned in frame to a mammalian expression vector that provided an exogenous AUG codon.
(§3) Lmtk^− cells were transfected with 5 μg of steroid receptors cDNAs expression vectors and their reporters, PR/PRE2-tk-CAT and TR§/DR4-tk-CAT, along with 10 μg of SRC-1(0.8) or empty expression vector and then treated with hormones (2×10^−8 M). The reporter CAT activity was determined using 60 μg of protein extract.

GST-TR = molecular target: T2, GST-TR; test: In vitro interaction with baculovirus expressed GST-TR; type: binding
From the text: (§4) Thus, we investigated the effect of SRC-1 expression on the transcriptional activity of other intracellular receptors.

TR = molecular target: T3, TR; test: Dominant-negative CAT assay TR/DR4-tk-CAT with SRC-1(0.8) in Lmtk- cells; type: cell-based; set-up: expressed in transfected cells; host or cells: Lmtk- (mouse fibroblast) cells; conditions: 10 μg SRC-1(0.8), hormone 2×10^−8 M
Procedure: as §1, §2, §3

GST-ER = molecular target: T4, GST-ER; test: In vitro interaction with baculovirus expressed GST-ER; type: binding
From the text: as §4

Molecule	induction of hPR activity (CAT reporter) (hPR [1]) [fold]	effect on hormone induced transcriptional activity of hPR (hPR [2]; 10 μg SRC-1(0.8), hormone 2×10^−8 M)	effect on the hormone-free receptor (hPR [2]; no hormone)	interaction with GST-TR in vitro (GST-TR)	effect on ligand-induced transcriptional activity of TR (TR)	interaction with GST-ER in vitro (GST-ER)
CCC(=O)[C@@]1(C)CC[C@H]2[C@@H]3CCC4=CC(=O)CCC4=C3CC[C@@]21C [R5020, reference compound]	~5	–	–	–	–	–
SRC-1(0.8): N-terminal truncated form of SRC-1, amino acids 865-1061, containing the receptor-binding region; dominant-negative repressor (protein, UniProt Q15788 865-1061, looked up, fragment) LNRLPELELEAIDNQFGQPGTGDQIPWTNNTVTAINQSKSEDQCISSQLDELLCPPTTVEGRNDEKALLEQLVSFLSGKDETELAELDRALGIDKLVQGGGLDVLSERFPPQQATPPLIMEERPNLYSQPYSSPSPTANLPSPFQGMVRQKPSLGTMPVQVTPPRGAFSPGMGMQPRQTLNRPPAAPNQLRLQLQQR	–	efficiently reduced	No major effect	able to interact	inhibits	able to interact
